Experimental data from patent US20230220093A1 (published 2023).

B1: SL335 Fab (anti-HSA Fab) (Fab, V domains shown)
VH: QVQLVQSGGGPVKPGGSLRLSCAASGFMFRAYSMNWVRQAPGKGLEWVSSISSSGRYIHYADSVKGRFTISRDNAKNSLYLQMNSLRAEDTAVYYCARETVMAGKALDYWGQGTLVTVSS
VL: DIVLTQSPGTLSLSPGETATLSCRASQSVGSNLAWYQQKPGQAPRLLIYGASTGATGVPARFSGSRSGTDFTLTITSLQPEDFATYYCQQYYSFLAKTFGQGTQLEIKR
notes: also called anti-HSA Fab (SL335)
B2: APB-A1, recombinant antibody (anti-CD40L scFv)2-anti-HSA Fab (bispecific antibody)
heavy: DIVLTQSPATLSVSPGERATISCRASQRVSSSTYSYMHWYQQKPGQPPKLLIKYASNLESGVPARFSGSGSGTDFTLTISSVEPEDFATYYCQHSWEIPPTFGGGTKLEIKRGGGGSGGGGSGGGGSQVQLVQSGAEVVKPGASVKLSCKASGYIFTSYYMYWVKQAPGQGLEWIGEINPSNGDTNFNEKFKSKATLTVDKSASTAYMELSSLRSEDTAVYYCTRSDGRNDMDSWGQGTLVTVSSGGGGSGGGGSGGGGSQVQLVQSGGGPVKPGGSLRLSCAASGFMFRAYSMNWVRQAPGKGLEWVSSISSSGRYIHYADSVKGRFTISRDNAKNSLYLQMNSLRAEDTAVYYCARETVMAGKALDYWGQGTLVTVSSASTKGPSVFPLAPSSKSTSEGTAALGCLVKDYFPEPVTVSWNSGALTSGVHTFPAVLQSSGLYSLSSVVTVPSSSLGTQTYICNVNHKPSNTKVDKKVEPKSS
light: DIVLTQSPATLSVSPGERATISCRASQRVSSSTYSYMHWYQQKPGQPPKLLIKYASNLESGVPARFSGSGSGTDFTLTISSVEPEDFATYYCQHSWEIPPTFGGGTKLEIKRGGGGSGGGGSGGGGSQVQLVQSGAEVVKPGASVKLSCKASGYIFTSYYMYWVKQAPGQGLEWIGEINPSNGDTNFNEKFKSKATLTVDKSASTAYMELSSLRSEDTAVYYCTRSDGRNDMDSWGQGTLVTVSSGSTSGSGKPGSGEGSTKGDIVLTQSPGTLSLSPGETATLSCRASQSVGSNLAWYQQKPGQAPRLLIYGASTGATGVPARFSGSRSGTDFTLTITSLQPEDFATYYCQQYYSFLAKTFGQGTQLEIKRTVAAPSVFIFPPSDEQLKSGTASVVCLLNNFYPREAKVQWKVDNALQSGNSQESVTEQDSKDSTYSLSNTLTLSKADYEKHKVYACEVTHQGLSSPVTKSFNRGES
notes: also called (anti-hu5c8 scFv)2-SL335; (scFv)2-Fab
B3: APB-B1a, (anti-CD40L scFv)2-(anti-HSA Fab)-(anti-TNF-α Fv) (bispecific antibody)
heavy: DIVLTQSPATLSVSPGERATISCRASQRVSSSTYSYMHWYQQKPGQPPKLLIKYASNLESGVPARFSGSGSGTDFTLTISSVEPEDFATYYCQHSWEIPPTFGQGTKLEIKRGGGGSGGGGSGGGGSQVQLVQSGAEVVKPGASVKLSCKASGYIFTSYYMYWVKQAPGQGLEWIGEINPSNGDTNFNEKFKSKATLTVDKSASTAYMELSSLRSEDTAVYYCTRSDGRNDMDSWGQGTLVTVSSGGGGSGGGGSGGGGSQVQLVQSGGGPVKPGGSLRLSCAASGFMFRAYSMNWVRQAPGKGLEWVSSISSSGRYIHYADSVKGRFTISRDNAKNSLYLQMNSLRAEDTAVYYCARETVMAGKALDYWGQGTLVTVSSASTKGPSVFPLAPSSKSTSEGTAALGCLVKDYFPEPVTVSWNSGALTSGVHTFPAVLQSSGLYSLSSVVTVPSSSLGTQTYICNVNHKPSNTKVDKKVEPKSSGGGGSGGGGSGGGGSEVQLVESGGGLVQPGGSLRLSCAASGYVFTDYGMNWVRQAPGKGLEWMGWINTYIGEPIYADSVKGRFTFSLDTSKSTAYLQMNSLRAEDTAVYYCARGYRSYAMDYWGQGTLVTVSS
light: DIVLTQSPATLSVSPGERATISCRASQRVSSSTYSYMHWYQQKPGQPPKLLIKYASNLESGVPARFSGSGSGTDFTLTISSVEPEDFATYYCQHSWEIPPTFGQGTKLEIKRGGGGSGGGGSGGGGSQVQLVQSGAEVVKPGASVKLSCKASGYIFTSYYMYWVKQAPGQGLEWIGEINPSNGDTNFNEKFKSKATLTVDKSASTAYMELSSLRSEDTAVYYCTRSDGRNDMDSWGQGTLVTVSSGSTSGSGKPGSGEGSTKGDIVLTQSPGTLSLSPGETATLSCRASQSVGSNLAWYQQKPGQAPRLLIYGASTGATGVPARFSGSRSGTDFTLTITSLQPEDFATYYCQQYYSFLAKTFGQGTQLEIKRTVAAPSVFIFPPSDEQLKSGTASVVCLLNNFYPREAKVQWKVDNALQSGNSQESVTEQDSKDSTYSLSNTLTLSKADYEKHKVYACEVTHQGLSSPVTKSFNRGESGGGGSGGGGSGGGGSDIQMTQSPSSLSASVGDRVTITCKASQNVGTNVAWYQQKPGKAPKALIYSASFLYSGVPYRFSGSGSGTDFTLTISSLQPEDFATYYCQQYNIYPLTFGQGTKVEIKR
notes: also called APB-1a; (scFv)2-Fab-Fv (certolizumab)

Columns and labels:
[1] = biological target: T1, human serum albumin (HSA) (Sigma-Aldrich) (human, UniProt P02768 25-609); experiment: BLI (Octet RED), HSA immobilised on AR2G biosensor
Text: (§1) The purified antibodies were continuously treated in a 1× kinetic buffer at pH 7.4 for two-fold dilution.

[2] = biological target: T2, cellular membrane CD40L expressed on D1.1 cells (CRL-10915) (UniProt P29965 1-261, limits assumed); experiment: flow cytometry on D1.1 cells, anti-human kappa-FITC
T2 construct: whole, on cells; also called mCD40L; cell membrane CD40L
T2 sequence (looked up): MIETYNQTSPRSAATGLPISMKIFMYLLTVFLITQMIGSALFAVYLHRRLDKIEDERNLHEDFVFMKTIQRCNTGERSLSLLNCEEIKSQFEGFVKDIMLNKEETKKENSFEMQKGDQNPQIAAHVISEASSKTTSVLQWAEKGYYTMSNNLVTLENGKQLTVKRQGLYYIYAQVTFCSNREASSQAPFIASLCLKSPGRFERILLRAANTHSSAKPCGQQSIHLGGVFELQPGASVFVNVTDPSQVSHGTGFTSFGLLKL

[3] = biological target: T1, human serum albumin (HSA) …; experiment: BLI (Octet RED), average of two runs
Experimental: (§2) The binding and dissociation kinetics were obtained using Octet QK software. Binding rate constants were calculated such that the observed binding curves are fitted to a 1:1 binding model.

[4] = biological target: T1, human serum albumin (HSA) …; experiment: BLI (Octet RED), second run
Experimental: as §2

[5] = biological target: T1, human serum albumin (HSA) …; experiment: BLI (Octet RED), HSA immobilised on AR2G biosensor, first run
Experimental: as §2

[6] = biological target: T1, human serum albumin (HSA) …; experiment: BLI (Octet RED)
Experimental: as §2

[7] = biological target: T3, recombinant human TNF-α protein (BioLegend) (human, UniProt P01375 77-233); experiment: BLI (Octet RED), TNF-α immobilised on AR2G biosensor
T3 construct: also called soluble TNF-α; recombinant soluble TNF-α protein
Text: as §1

[8] = biological target: T3, recombinant human TNF-α protein …; experiment: cell-based or functional assay
[9] = biological target: T4, recombinant human CD40L (rhCD40L-his) (human, UniProt P29965 113-261, limits assumed); experiment: BLI (Octet RED), CD40L immobilised on AR2G biosensor
T4 construct: The construct is purified by IMAC and named rhCD40L-his; also called rhCD40L antigen; soluble CD40L
T4 sequence (looked up): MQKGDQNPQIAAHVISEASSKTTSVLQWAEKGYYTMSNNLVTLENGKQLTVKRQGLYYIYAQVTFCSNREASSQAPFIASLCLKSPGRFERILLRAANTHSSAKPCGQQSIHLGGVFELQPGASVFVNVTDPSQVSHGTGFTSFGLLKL
Text: as §1

[10] = biological target: T4, recombinant human CD40L (rhCD40L-his); experiment: ELISA, CD40L coated, anti-human Fd-HRP
Text: HRP-conjugated goat anti-human Fd antibodies were used as secondary antibodies.

T3 sequence (P01375 77-233 limits assumed): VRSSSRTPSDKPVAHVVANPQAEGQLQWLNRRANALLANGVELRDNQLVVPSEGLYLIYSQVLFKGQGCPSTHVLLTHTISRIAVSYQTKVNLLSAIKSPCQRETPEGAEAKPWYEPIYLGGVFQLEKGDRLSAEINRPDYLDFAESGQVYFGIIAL

Binder | Kd [1] [nM] | koff [1] [s⁻¹] | kon [1] [M⁻¹ s⁻¹] | binding result [2] | Kd [3] [nM] | koff [3] [s⁻¹] | kon [3] [M⁻¹ s⁻¹] | Kd [4] [nM] | Kd [5] [nM] | fold of KD against SL335-HSA KD [6] [fold] | Kd [7] [nM] | koff [7] [s⁻¹] | kon [7] [M⁻¹ s⁻¹] | IC50, HEK-Blue reporter (SEAP), soluble TNF-α 10 ng/ml (FIG. 22B) [8] [nM] | IC50, inhibition of TNF-α mediated cytotoxicity, L929 mouse cells, HSA present (CCK-8) [8] [nM] | Kd [9] [nM] | koff [9] [s⁻¹] | kon [9] [M⁻¹ s⁻¹] | fold lower binding capacity against anti-human CD40L IgG1 (ruplizumab) [10] [fold]
B1 | 0.286 | 0.000288 | 1.01e+06 | no binding | – | – | – | – | – | – | – | – | – | – | – | – | – | – | –
B2 | – | – | – | – | 0.688 | 0.00056 | 804000 | 0.628 | 0.748 | ~2.6 | – | – | – | – | – | – | – | – | –
B3 | 0.765 | 0.00042 | 549000 | – | – | – | – | – | – | – | 0.164 | 3.82e-05 | 230000 | 3.05 | 5.3 | 0.192 | 0.000113 | 590000 | ~1.5
